Where two headings read alike, the source gives them in different places.

The target in assay [1] is T1, human PD-L1 expressed on the surface of cells (CHO-S-PD-L1 cells) (human, UniProt Q9NZQ7 19-290).
T1 construct: whole, on cells; also called CHO-S cells overexpressing PD-L1; PD-L1 aAPC/CHO-K1 cells
Nature of the assay: FACS on CHO-S cells overexpressing human PD-L1, PE-conjugated anti-human Fc detection, MFI.
Description: (§1) In short, CHO-S-PD-L1 cells were counted, and the cell suspension was diluted to 1×10⁶ cells/ml with cell medium, and then added to a U-bottom 96-well plate at 100 μl/well. The cell suspension was centrifuged at 400 g on a centrifuge for 5 minutes to remove the cell medium. […] The cell suspension was centrifuged at 400 g for 5 minutes, and then the supernatant was removed, and the cells were washed with PBS to remove the unbound antibodies. The obtained cell suspension was centrifuged at 400 g for 5 min to remove PBS. 100 μl of the solution of PE-conjugated anti-human Fc antibody (Jackson Immuno Research) diluted at a ratio of 1:200 was added to each well, and the cells were incubated in the dark on the ice for 30 min. Then the cell suspension was centrifuged at 400 g for 5 min and the supernatant was removed. The cells were washed with PBS to remove the unbound PE-conjugated anti-human Fc antibody. The cells were resuspended with 100 μl of PBS, and the binding of the antibodies to cells was assayed by FACS.

Assay [2] concerns the target T2, human LAG-3 expressed on the surface of cells (293-LAG-3 cells) (human, UniProt P18627 23-525).
T2 construct: whole, on cells; also called HEK293 cells overexpressing LAG-3; CD223
T2 sequence (looked up): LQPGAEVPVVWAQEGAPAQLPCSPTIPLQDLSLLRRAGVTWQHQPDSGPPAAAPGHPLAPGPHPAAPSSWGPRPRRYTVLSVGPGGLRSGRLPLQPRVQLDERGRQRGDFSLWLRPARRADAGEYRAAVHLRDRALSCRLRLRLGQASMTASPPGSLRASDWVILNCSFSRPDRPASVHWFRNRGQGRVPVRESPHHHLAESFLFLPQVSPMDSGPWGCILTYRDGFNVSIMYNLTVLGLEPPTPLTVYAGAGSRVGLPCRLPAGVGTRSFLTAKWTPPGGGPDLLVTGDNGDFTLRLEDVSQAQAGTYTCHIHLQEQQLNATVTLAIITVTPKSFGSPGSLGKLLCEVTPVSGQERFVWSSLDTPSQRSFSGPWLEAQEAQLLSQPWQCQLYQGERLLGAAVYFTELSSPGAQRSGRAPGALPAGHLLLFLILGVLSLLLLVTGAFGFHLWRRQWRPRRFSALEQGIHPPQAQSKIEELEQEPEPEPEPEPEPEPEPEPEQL
Description: FACS on HEK293 cells overexpressing human LAG-3, PE-conjugated anti-human Fc detection, MFI.

Assay [3] deals with T3, human CD47 expressed on the surface of cells (CHO-S-CD47 cells) (human, UniProt Q08722 19-323).
T3 construct: whole, on cells; also called CHO-S cells overexpressing CD47; CHO-CD47
Nature of the assay: FACS on CHO-S cells overexpressing human CD47, PE-conjugated anti-human Fc detection, MFI.
Description: (§2) The cell suspension was centrifuged at 400 g on a centrifuge for 5 minutes to remove the cell medium. […] The cell suspension was centrifuged at 400 g for 5 minutes, and then the supernatant was removed, and the cells were washed with PBS to remove the unbound antibodies. The obtained cell suspension was centrifuged at 400 g for 5 minutes to remove PBS. 100 μL of the solution of PE-conjugated anti-human Fc antibody (Jackson Immuno Research) diluted at a ratio of 1:200 was added to each well, and the cells were incubated in the dark on the ice for 30 minutes. Then the cell suspension was centrifuged at 400 g for 5 minutes and the supernatant was removed. The cells were washed with PBS to remove the unbound PE-conjugated anti-human Fc antibody. The cells were resuspended with 100 μL of PBS, and the binding of the antibodies to cells was assayed by FACS.

Assay [4] addresses T4, tumor cells H292 (ATCC), co-incubated with human red blood cells.
T4 construct: also called H292 cells
Nature of the assay: flow cytometry; CFSE-labelled H292 cells co-incubated 1:20 with human red blood cells; antibody 0.041 nM.
Description: (§3) Tumor cells H292 (ATCC) were fluorescently labeled with fluorochrome CFSE according to the instructions of CellTrace™ CFSE Cell Proliferation Kit (Invitrogen, catalog number: C34554). The labeled tumor cells were co-cultured with the aforementioned isolated human red blood cells at a ratio of 1:20 in terms of cell number, and meanwhile, tested antibody solutions of different concentrations were added. The cells were incubated at 4° C. for 30 min. […] The cells were washed at least twice with PBS and analyzed by flow cytometry.

A further assay deals with T5, h CD47 (Acrobiosystems) (human, UniProt Q08722 19-139).
T5 construct: Bought soluble antigen; also called CD47 protein in solution
Description: ForteBio Octet BLI; antibody loaded on AHC sensor, h CD47 100 nM in solution.

The target of assay [5] is T3, human CD47 expressed on the surface of …. Description: FACS on CHO-S cells overexpressing human CD47; antibody sample after 30 days at 40 C.
Description: as §2
In assay [6] the target is T4, tumor cells H292 (ATCC), co-incubated …. Description: flow cytometry; CFSE-labelled H292 cells co-incubated 1:20 with human red blood cells; antibody 10.000 nM.
Description: (§4) The mixture was then gently added to 4 tubes each with 12.5 ml of FiColl (Thermo). The samples were centrifuged at 400 g for 30 min with zero deceleration. The upper serum and PBMC were removed to obtain red blood cells in the lowest layer.
as §3
Assay [7] shares this target. Description: flow cytometry; CFSE-labelled H292 cells co-incubated 1:20 with human red blood cells; antibody 3.333 nM.
Description: as §4, §3
Assay [8] has as its target T3, human CD47 expressed on the surface of …. Description: FACS on CHO-S cells overexpressing human CD47; antibody sample of day 0.
Assay [9] concerns the target T4, tumor cells H292 (ATCC), co-incubated …. Description: flow cytometry; CFSE-labelled H292 cells co-incubated 1:20 with human red blood cells; antibody 0.370 nM. For orientation: Flow cytometry measures light scatter and fluorescence of single cells or particles in a stream.
Description: as §4, §3
The target is the same in assay [10]. Nature of the assay: flow cytometry; CFSE-labelled H292 cells co-incubated 1:20 with human red blood cells; antibody 1.111 nM.
Description: as §3
The target is the same in assay [11]. Nature of the assay: flow cytometry; CFSE-labelled H292 cells co-incubated 1:20 with human red blood cells; antibody 0.014 nM.
Description: as §4, §3
Assay [12] shares this target. Nature of the assay: flow cytometry; CFSE-labelled H292 cells co-incubated 1:20 with human red blood cells; antibody 0.123 nM.
Description: as §3
The target of assay [13] is T6, human 4-1BB expressed on the surface of cells (CHO-S-4-1BB cells) (human, UniProt Q07011 24-255).
T6 construct: whole, on cells; also called CHO-S cells overexpressing 4-1BB; CD137
T6 sequence (Q07011 24-255): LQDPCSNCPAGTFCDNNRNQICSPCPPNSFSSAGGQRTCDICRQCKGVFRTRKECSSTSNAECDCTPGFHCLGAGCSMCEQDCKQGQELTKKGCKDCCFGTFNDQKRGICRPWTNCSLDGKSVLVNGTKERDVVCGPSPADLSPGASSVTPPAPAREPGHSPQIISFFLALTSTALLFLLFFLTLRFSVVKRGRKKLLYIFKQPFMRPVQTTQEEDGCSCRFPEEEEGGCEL
Nature of the assay: FACS on CHO-S cells overexpressing human 4-1BB, PE-conjugated anti-human Fc detection, MFI.

Assay [14] addresses T1, human PD-L1 expressed on the surface of …. Description: FACS on CHO-S cells overexpressing human PD-L1, PE-conjugated anti-human Fc detection, MFI. The source holds these as a separate data set.
Description: as §1

T1 sequence (Q9NZQ7 19-290): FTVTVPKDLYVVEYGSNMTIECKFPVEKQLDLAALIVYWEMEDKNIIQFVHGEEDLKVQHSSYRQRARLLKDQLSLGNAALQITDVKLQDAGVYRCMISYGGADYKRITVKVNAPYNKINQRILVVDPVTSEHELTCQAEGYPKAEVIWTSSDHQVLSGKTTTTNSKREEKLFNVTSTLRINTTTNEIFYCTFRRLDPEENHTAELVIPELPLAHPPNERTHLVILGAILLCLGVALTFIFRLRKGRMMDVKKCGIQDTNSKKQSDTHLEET
Description for h CD47 (Acrobiosystems): The anti-human IgG Fc biosensor AHC was immersed in each well containing the antibody solution, and immersed at room temperature for 600 seconds to load the samples. The sensor was then washed in SD buffer until it returned to the baseline, and then immersed in a well containing 100 μL of the antigen solution to monitor the association of the antibody with the antigen. The sensor was then transferred to a well containing 100 ul of SD buffer to monitor the antibody dissociation. The rotation speed was 400 rpm and the temperature was 30° C. The background-corrected association and dissociation curves were plotted by the Octet analysis software (ForteBio) to generate the association (k_{∞}) rate constant and dissociation (kdis) rate constant, which are then used to calculate the equilibrium dissociation constant (KD).

B1: anti-LAG-3/PD-L1 bispecific antibody Kh2NF-PL (bispecific antibody, human IgG1, kappa, L234A L235A)
heavy: not shown
light: not shown
chain: QVQLQESGGGLVQPGGSLRLSCAASAYTISRNSMGWFRQAPGKGLEGVAAIESDGSTSYSDSVKGRFTISLDNSKNTLYLEMNSLRAEDTAVYYCAAPKVGLGPRTALGHLAFMTLPALNYWGQGTLVTVSSQVQLQESGGGLVQPGGSLRLSCAASAYTISRNSMGWFRQAPGKGLEGVAAIESDGSTSYSDSVKGRFTISLDNSKNTLYLEMNSLRAEDTAVYYCAAPKVGLGPRTALGHLAFMTLPALNYWGQGTLVTVSSDKTHTCPPCPAPEAAGGPSVFLFPPKPKDTLMISRTPEVTCVVVDVSHEDPEVKFNWYVDGVEVHNAKTKPREEQYNSTYRVVSVLTVLHQDWLNGKEYKCKVSNKALPAPIEKTISKAKGQPREPQVCTLPPSRDELTKNQVSLSCAVKGFYPSDIAVEWESNGQPENNYKTTPPVLDSDGSFFLVSKLTVDKSRWQQGNVFSCSVMHEALHNHYTQKSLSLSPG
notes: Triple-chain antibody; Fc with LALA and knob-in-hole mutations
Broadly, the EC50 (read off the curve) is the concentration that produces a half-maximal response. B1: the “EC50 (read off the curve)” value in [1] and in assay [2] was roughly 1 nM in each case.

B2: IgG1 Control (antibody, V domains shown)
VH: EVRLLESGGGLVQPGGSLRLSCAASGFTFSNYAMGWVRQAPGKGLEWVSAISGSGGSTYYADSVKGRFTTSRDDSKNALYLQMNSLRAEDTAVYYCARGGPGWYAADVWGQGTTVTVSS
VL: DIQMTQSPSSLSASVGDRVTITCRASQSISSYLNWYQQKPGKAPKLLIYAASSLQSGVPSRFSGSGSGTDFTLTISSLQPEDFATYYCQQADLPAFAFGGGTKVEIKR
notes: also called IgG1 negative control antibody
For the molecule B2, the binding result in assay [3] is “no binding (tested: about 300 nM)”.

B3: anti-LAG-3 antibody ADI-31853 (antibody, V domains shown)
VH: QLQLQESGPGLVKPSETLSLTCTVSGGSIYSESYYWGWIRQPPGKGLEWIGSIVYSGYTYYNPSLKSRVTISVDTSKNQFSLKLSSVTAADTAVYYCARVRTWDAAFDIWGQGTMVTVSS
VL: DIQMTQSPSSLSASVGDRVTITCQASQDISNYLNWYQQKPGKAPKLLIYDASNLETGVPSRFSGSGSGTDFTFTISSLQPEDIATYYCQQVLELPPWTFGGGTKVEIK
notes: also called parent antibody (anti-LAG-3)
For B3, the “EC50 (read off the curve)” value in assay [2] is roughly 0.5 nM.

B4: anti-CD47/PD-L1 bispecific antibody Kh2NF-PC (bispecific antibody, human IgG1, kappa, L234A L235A)
heavy: not shown
light: DIQMTQSPSSVSASVGDRVTITCRASQGISRWLAWYQQKPGKAPKLLIYAASSLQSGVPSRFSGSGSGTDFTLTISSLQPEDFATYYCQQTVSFPITFGGGTKVEIKRTVAAPSVFIFPPSDEQLKSGTASVVCLLNNFYPREAKVQWKVDNALQSGNSQESVTEQDSKDSTYSLSSTLTLSKADYEKHKVYACEVTHQGLSSPVTKSFNRGEC
chain: QVQLQESGGGLVQPGGSLRLSCAASAYTISRNSMGWFRQAPGKGLEGVAAIESDGSTSYSDSVKGRFTISLDNSKNTLYLEMNSLRAEDTAVYYCAAPKVGLGPRTALGHLAFMTLPALNYWGQGTLVTVSSGGGGSGGGGSGGGGSGGGGSQVQLQESGGGLVQPGGSLRLSCAASAYTISRNSMGWFRQAPGKGLEGVAAIESDGSTSYSDSVKGRFTISLDNSKNTLYLEMNSLRAEDTAVYYCAAPKVGLGPRTALGHLAFMTLPALNYWGQGTLVTVSSDKTHTCPPCPAPEAAGGPSVFLFPPKPKDTLMISRTPEVTCVVVDVSHEDPEVKFNWYVDGVEVHNAKTKPREEQYNSTYRVVSVLTVLHQDWLNGKEYKCKVSNKALPAPIEKTISKAKGQPREPQVCTLPPSRDELTKNQVSLSCAVKGFYPSDIAVEWESNGQPENNYKTTPPVLDSDGSFFLVSKLTVDKSRWQQGNVFSCSVMHEALHNHYTQKSLSLSPG
notes: Triple-chain antibody (1+2 format)
What is called Kd is the concentration at which binding is half-saturated. Read a high Kd as weaker binding. As a reminder, the koff is a measure of how fast the partners let go of each other. For orientation: kon means the second-order rate constant of association. B4: the “EC50 (read off the curve)” value in assay [3] was roughly 2 nM; in assay [5] it was roughly 3 nM; in [8], roughly 2 nM. The “proportion of antibody binding to H292 cells” value (“proportion of antibody binding” below) in assay [4] was found to be 82%; in [6], 12.5%; in [7] it was 12.1%; in assay [9] it was 44.5%; in assay [10], 23%; in assay [11] it was 14.9%. Besides, the “proportion of antibody binding” value in assay [12] was 88.5%. Besides, in the assay with h CD47 (Acrobiosystems), the affinity, expressed as Kd, was 1.31 nM. The molecule also returned a koff with h CD47 (Acrobiosystems) of 0.00155 s⁻¹. This molecule showed a kon with h CD47 (Acrobiosystems) of 1.18e+06 M⁻¹ s⁻¹.

B5: anti-CD47/PD-L1 bispecific antibody Kh2NF-PC-NL (bispecific antibody, human IgG1, kappa, L234A L235A)
heavy: not shown
light: B4 light
chain: B1 chain
notes: Triple-chain antibody without a linker between the two VHH; Fc with LALA and knob-in-hole mutations
As to B5, the results for the “EC50 (read off the curve)” value in assay [3] and in assay [8] were roughly 2 nM and roughly 3 nM, respectively. Further, the “proportion of antibody binding” value in [4] came to 46.3%; in assay [6], 11.3%; in assay [7] it was 13.2%; in assay [9], 61.6%; in assay [10], 41%; in [11], 1.41%. Moreover, the “proportion of antibody binding” value in assay [12] worked out at 83.2%. The molecule also had a Kd with h CD47 (Acrobiosystems) of 1.07 nM. This molecule gave a koff in the assay with h CD47 (Acrobiosystems) of 0.00128 s⁻¹. Further, the kon with h CD47 (Acrobiosystems) was found to be 1.19e+06 M⁻¹ s⁻¹.

B6: anti-4-1BB/PD-L1 bispecific antibody Kh2NF-P4 (bispecific antibody, human IgG1, kappa, L234A L235A)
heavy: not shown
light: not shown
chain: B4 chain
notes: as for B1
For B6, the “EC50 (read off the curve)” value in assay [13] is roughly 5 nM; in [14], roughly 2 nM.

B7: anti-4-1BB antibody BMS-663513 (antibody, V domains shown)
VH: QVQLQQWGAGLLKPSETLSLTCAVYGGSFSGYYWSWIRQSPEKGLEWIGEINHGGYVTYNPSLESRVTISVDTSKNQFSLKLSSVTAADTAVYYCARDYGPGNYDWYFDLWGRGTLVTVSS
VL: EIVLTQSPATLSLSPGERATLSCRASQSVSSYLAWYQQKPGQAPRLLIYDASNRATGIPARFSGSGSGTDFTLTISSLEPEDFAVYYCQQRSNWPPALTFGGGTKVEIK
notes: also called parent antibody (anti-4-1BB)
Regarding B7, in [13], the “EC50 (read off the curve)” value was roughly 1 nM.
